# From the supplement of paper PMC10724198
# ± gives the standard deviation of the averaged measurements.
# System: Saccharomyces cerevisiae
# Test: protein stability index of tFT-peptide fusion (C-terminal peptide) (PSI (0-1 scale)); higher = more stable (slower turnover)
# Settings: genetic background: wild type; temperature: 30 C
# Procedure: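 MPS profiling in S. cerevisiae of the tFT-X12 degron library: putative degron peptides plus stable controls, 12 aa, fused to the C-terminus of a sfGFP-mCherry timer. Cells are FACS-sorted into 8 mCherry/sfGFP bins and deep-sequenced. PSI runs from 0 (unstable) to 1 (stable). Backgrounds are wild type, das1Δ and doa10Δ at 30 °C, and wild type, das1Δ, cdc34-1 and cdc53-1 at 37 °C; 2-3 technical replicates each.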
# 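Note: PSI is a weighted mean of sequencing reads over stability bins, variants kept only with over 10 reads, mCherry proximal and sfGFP distal, peptide attached via GGGS linker.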
row,Sequence,protein stability index
1,PAPQAVRIFSLY,0.183 ± 0.022
2,PASYPPFIYLSI,0.418 ± 0.026
3,PCFACIAFVLFP,0.343 ± 0.014
4,PLFLRPLSVPVL,0.328 ± 0.024
5,PLLPCRPILFLL,0.117 ± 0.014
6,PLLPLPRFPLFA,0.367 ± 0.013
7,PLSDPLRVILIM,0.22 ± 0.023
8,PPPPTPRPLLPP,0.667 ± 0.011
9,PPPRLPLLSCSQ,0.638 ± 0.034
10,PPPSRRLTLRLA,0.21 ± 0.02
11,PPWRPVALLLLA,0.0841 ± 0.018
12,PRFCVYARFHNT,0.375 ± 0.033
13,PRFWFYLSYSVH,0.344 ± 0.02
14,PSPPPPLPPHPS,0.667 ± 0.013
15,PSPPPPRPASPS,0.652 ± 0.015
16,PSTLVITVVITK,0.243 ± 0.03
17,PYHAPRPPFSLF,0.0545 ± 0.017
18,QARQLEMYMVVF,0.418 ± 0.013
19,QCKHIVRKIKLH,0.0952 ± 0.034
20,QDFFYCLLVATS,0.205 ± 0.03
21,QGILVGCCYVLC,0.3 ± 0.023
22,QLGGKVGNCHVV,0.652 ± 0.009
23,QVGRPRVGFSRR,0.66 ± 0.02
24,RAFFLLYCTLWA,0.161 ± 0.025
25,RALYLLALVGVS,0.214 ± 0.024
26,RARFMLGVLLST,0.352 ± 0.024

row,Sequence,protein stability index
1,RARLRFASLRAF,0.122 ± 0.008
2,RDRHFKIQTCIM,0.246 ± 0.039
3,RFCLLFVVAGGV,0.371 ± 0.018
4,RFFFFFPCLLAP,0.418 ± 0.029
5,RFYLFLFFVRST,0.11 ± 0.008
6,RGGVCFVVWCGG,0.432 ± 0.0053
7,RGRLKSSYFILF,0.534 ± 0.047
8,RGWNGFWVVVVW,0.227 ± 0.035
9,RIKVTRRIIIYA,0.179 ± 0.022
10,RILSLQFILCKR,0.414 ± 0.043
11,RLARRGGGWGPG,0.67 ± 0.046
12,RLELTRIMIVAI,0.117 ± 0.028
13,RLGIRCLYLRFI,0.216 ± 0.035
14,RLLCLARMRGLH,0.337 ± 0.022
15,RLMVHQHTIPVR,0.316 ± 0.0095
16,RLVIFITRYLIS,0.162 ± 0.016
17,RLVYSQKRWSLF,0.181 ± 0.032
18,RPGRWFCFLYCV,0.141 ± 0.017
19,RPIFAYRPLRFL,0.231 ± 0.04
20,RPNTFRTRAKAL,0.168 ± 0.039
21,RRFKKTEIIKNN,0.143 ± 0.053
22,RRVPVHIHFSLF,0.194 ± 0.021
23,RSKKIFLTKKYS,0.202 ± 0.025
24,RSPIRYPPVVLS,0.539 ± 0.008
25,RSPVVVFAVLLF,0.35 ± 0.029
26,RSRCVRAAVKVG,0.216 ± 0.023

row,Sequence,protein stability index
1,RSRRNRYSRKIA,0.0787 ± 0.024
2,RSWLCFIVFGLF,0.234 ± 0.014
3,RTSRPVRLFRIH,0.279 ± 0.046
4,RVCWLRAFGFLV,0.29 ± 0.051
5,RVGALLAVTCPA,0.302 ± 0.036
6,RVLILCLFFRWS,0.279 ± 0.029
7,RVVILFVFLVYV,0.25 ± 0.018
8,RWCLWGTRVWVS,0.111 ± 0.022
9,RWELASKCRLCV,0.16 ± 0.029
10,RWRDGVAWVVVC,0.098 ± 0.0042
11,SAWGQAFWCQMG,0.265 ± 0.014
12,SCCGCGFGLLFC,0.632 ± 0.016
13,SCCIYVALCRWL,0.353 ± 0.035
14,SCGVYVVFVLVE,0.152 ± 0.022
15,SCIVRTLVPCPS,0.27 ± 0.029
16,SFCVLLQFCVLV,0.3381 ± 0.0012
17,SFFCTRVLWVFQ,0.0846 ± 0.027
18,SFHTFFCPFFIL,0.168 ± 0.023
19,SGPNASRFYAPI,0.656 ± 0.037
20,SHPFIRSLVFLA,0.0711 ± 0.0057
21,SHWSMQATLQLV,0.468 ± 0.011
22,SIFFLVPLVFLS,0.141 ± 0.019
23,SIPVWTIELFAT,0.368 ± 0.035
24,SLEACYCFVVLV,0.186 ± 0.023
25,SLFDQDCGGTVW,0.6706 ± 0.0058
26,SLIFRVGKFKSL,0.0746 ± 0.017

# Same assay, conditions: genetic background: wild type; temperature: 37 C
row,Sequence,protein stability index
1,PAPQAVRIFSLY,0.39 ± 0.019
2,PASYPPFIYLSI,0.4461 ± 0.00056
3,PCFACIAFVLFP,0.4507 ± 0.0011
4,PLFLRPLSVPVL,0.4324 ± 0.0022
5,PLLPCRPILFLL,0.182 ± 0.038
6,PLLPLPRFPLFA,0.529 ± 0.019
7,PLSDPLRVILIM,0.328 ± 0.017
8,PPPPTPRPLLPP,0.697 ± 0.012
9,PPPRLPLLSCSQ,0.66 ± 0.022
10,PPPSRRLTLRLA,0.397 ± 0.015
11,PPWRPVALLLLA,0.117 ± 0.077
12,PRFCVYARFHNT,0.567 ± 0.02
13,PRFWFYLSYSVH,0.493 ± 0.01
14,PSPPPPLPPHPS,0.716 ± 0.032
15,PSPPPPRPASPS,0.719 ± 0.0084
16,PSTLVITVVITK,0.389 ± 0.02
17,PYHAPRPPFSLF,0.111 ± 0.04
18,QARQLEMYMVVF,0.544 ± 0.0069
19,QCKHIVRKIKLH,0.147 ± 0.014
20,QDFFYCLLVATS,0.305 ± 0.0038
21,QGILVGCCYVLC,0.4657 ± 0.0015
22,QLGGKVGNCHVV,0.715 ± 0.034
23,QVGRPRVGFSRR,0.7302 ± 0.0063
24,RAFFLLYCTLWA,0.24 ± 0.0077
25,RALYLLALVGVS,0.3484 ± 0.0029
26,RARFMLGVLLST,0.49366 ± 3e-05

row,Sequence,protein stability index
1,RARLRFASLRAF,0.217 ± 0.018
2,RDRHFKIQTCIM,0.515 ± 0.035
3,RFCLLFVVAGGV,0.516 ± 0.015
4,RFFFFFPCLLAP,0.486 ± 0.006
5,RFYLFLFFVRST,0.131 ± 0.012
6,RGGVCFVVWCGG,0.441 ± 0.0061
7,RGRLKSSYFILF,0.671 ± 0.017
8,RGWNGFWVVVVW,0.368 ± 0.032
9,RIKVTRRIIIYA,0.302 ± 0.018
10,RILSLQFILCKR,0.546 ± 0.019
11,RLARRGGGWGPG,0.7281 ± 0.00042
12,RLELTRIMIVAI,0.102 ± 0.02
13,RLGIRCLYLRFI,0.363 ± 0.016
14,RLLCLARMRGLH,0.579 ± 0.024
15,RLMVHQHTIPVR,0.533 ± 0.0081
16,RLVIFITRYLIS,0.275 ± 0.0028
17,RLVYSQKRWSLF,0.451 ± 0.027
18,RPGRWFCFLYCV,0.233 ± 0.0093
19,RPIFAYRPLRFL,0.503 ± 0.015
20,RPNTFRTRAKAL,0.333 ± 0.057
21,RRFKKTEIIKNN,0.29 ± 0.048
22,RRVPVHIHFSLF,0.393 ± 0.033
23,RSKKIFLTKKYS,0.395 ± 0.044
24,RSPIRYPPVVLS,0.6895 ± 0.0015
25,RSPVVVFAVLLF,0.505 ± 0.0057
26,RSRCVRAAVKVG,0.427 ± 0.026

row,Sequence,protein stability index
1,RSRRNRYSRKIA,0.141 ± 0.03
2,RSWLCFIVFGLF,0.347 ± 0.011
3,RTSRPVRLFRIH,0.448 ± 0.0097
4,RVCWLRAFGFLV,0.57118 ± 0.00039
5,RVGALLAVTCPA,0.4766 ± 0.0026
6,RVLILCLFFRWS,0.397 ± 0.016
7,RVVILFVFLVYV,0.365 ± 0.014
8,RWCLWGTRVWVS,0.153 ± 0.03
9,RWELASKCRLCV,0.304 ± 0.061
10,RWRDGVAWVVVC,0.0954 ± 0.0098
11,SAWGQAFWCQMG,0.555 ± 0.025
12,SCCGCGFGLLFC,0.7399 ± 0.0056
13,SCCIYVALCRWL,0.48 ± 0.0084
14,SCGVYVVFVLVE,0.246 ± 0.0014
15,SCIVRTLVPCPS,0.445 ± 0.0094
16,SFCVLLQFCVLV,0.4258 ± 0.0029
17,SFFCTRVLWVFQ,0.149 ± 0.029
18,SFHTFFCPFFIL,0.288 ± 0.022
19,SGPNASRFYAPI,0.704 ± 0.011
20,SHPFIRSLVFLA,0.0908 ± 0.014
21,SHWSMQATLQLV,0.601 ± 0.012
22,SIFFLVPLVFLS,0.216 ± 0.055
23,SIPVWTIELFAT,0.537 ± 0.039
24,SLEACYCFVVLV,0.25 ± 0.015
25,SLFDQDCGGTVW,0.804 ± 0.016
26,SLIFRVGKFKSL,0.101 ± 0.0098
